The values that follow come from patent US20080200416A1 (Stanford University, published 2008).

This experiment addresses T1, SHP-2 (mouse, UniProt P35235 2-593, limits assumed).
T1 construct: Endogenous protein probed in anti-Lck immunoprecipitates; also called tyrosine phosphatase SHP-2
T1 sequence (looked up): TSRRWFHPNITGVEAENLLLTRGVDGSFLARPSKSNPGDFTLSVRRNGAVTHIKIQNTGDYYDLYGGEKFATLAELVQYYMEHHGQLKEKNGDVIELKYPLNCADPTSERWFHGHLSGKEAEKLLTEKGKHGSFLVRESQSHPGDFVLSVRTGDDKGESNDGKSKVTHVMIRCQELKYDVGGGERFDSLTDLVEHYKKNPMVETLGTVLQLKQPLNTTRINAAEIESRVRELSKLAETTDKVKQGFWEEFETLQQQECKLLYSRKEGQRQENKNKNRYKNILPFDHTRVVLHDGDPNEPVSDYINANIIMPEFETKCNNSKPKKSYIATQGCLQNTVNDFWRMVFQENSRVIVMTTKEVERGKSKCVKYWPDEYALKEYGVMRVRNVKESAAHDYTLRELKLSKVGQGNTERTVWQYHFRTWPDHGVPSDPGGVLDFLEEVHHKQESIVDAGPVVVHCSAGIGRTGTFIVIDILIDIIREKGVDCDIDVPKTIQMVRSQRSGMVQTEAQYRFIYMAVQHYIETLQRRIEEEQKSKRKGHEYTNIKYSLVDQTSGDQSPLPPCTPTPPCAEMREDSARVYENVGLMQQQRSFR
Description: co-immunoprecipitation with anti-Lck from 5C.C7 T cell lysates, Western blot. On the procedure: (A) Western blot analyses of anti-Lck immuno-precipitates to detect site-specific phosphorylation. Phosphorylation of Lck at the activating Y394 or inhibitory Y505 before antigen stimulation were probed with specific antibodies. […] Membranes were stripped and re-probed for Lck as loading controls. (B) Induction of ERK phosphorylation by the antagonist MCC 99R. Virally-infected T cells were mixed with CH27 cells alone or CH27 cells preloaded with 10 μM MCC 99R, spun down to facilitate rapid T:APC contact, incubated at 37° C. for 5 minutes, and analyzed for ERK phosphorylation by Phosphor-Flow. Cells were gated on GFP and CD4 for virally-infected T cells. […] (D) Western blot analyses of anti-Lck immuno-precipitates to detect Lck serine phosphorylation before antigen stimulation. […] Double selected 5C.C7 T cells were mixed with peptide pre-loaded CH27 cells (10 μM MCC 99R or 1 μM MCC) by quick spin and incubated at 37° C. for 5 mins. SHP-1 was co-precipitated with Lck whereas SHP-2 was undetectable under the same condition.
A general note: In western blotting, separated proteins are transferred to a membrane and probed.

B1: Lck (enzyme, mouse, UniProt P06240 2-509, looked up)
chain: GCVCSSNPEDDWMENIDVCENCHYPIVPLDSKISLPIRNGSEVRDPLVTYEGSLPPASPLQDNLVIALHSYEPSHDGDLGFEKGEQLRILEQSGEWWKAQSLTTGQEGFIPFNFVAKANSLEPEPWFFKNLSRKDAERQLLAPGNTHGSFLIRESESTAGSFSLSVRDFDQNQGEVVKHYKIRNLDNGGFYISPRITFPGLHDLVRHYTNASDGLCTKLSRPCQTQKPQKPWWEDEWEVPRETLKLVERLGAGQFGEVWMGYYNGHTKVAVKSLKQGSMSPDAFLAEANLMKQLQHPRLVRLYAVVTQEPIYIITEYMENGSLVDFLKTPSGIKLNVNKLLDMAAQIAEGMAFIEEQNYIHRDLRAANILVSDTLSCKIADFGLARLIEDNEYTAREGAKFPIKWTAPEAINYGTFTIKSDVWSFGILLTEIVTHGRIPYPGMTNPEVIQNLERGYRMVRPDNCPEELYHLMMLCWKERPEDRPTFDYLRSVLDDFFTATEGQYQPQP
notes: Endogenous protein in T cell lysates; the phosphorylation state varies with the condition
Turning to B1, the binding result is “no binding”.
